Reference: the nanobody polyreactivity screen of Harvey et al. (2022)

Experiment: yeast display, Sf9 membrane polyspecificity reagent, FACS + sequencing; frameworks hold sequencing errors
In short: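 After 36–48 hours of galactose induction, yeast (Saccharomyces cerevisiae BJ5465) displaying a synthetic nanobody library were stained at 4 °C for 1 hour with 10% biotinylated, detergent-solubilized Sf9 membrane reagent. Streptavidin microbeads enriched the stained cells before FACS sorting into low and high (top ~1%) gates on anti-HA and streptavidin fluorescence. Each clone's polyreactivity label reflects its gate of origin.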

Row | Sequence | polyreactivity (PSR sort gate)
1 | QVQLVESVGGLVQAGGSLRLICAASGSIFYPNAMGWYRQAPGKERELVAAISYSGTSTNYADSVKGRFTISRDNAKNTVYLQMNSLKPEDTAVYYCAARGFPHRRHSLYDYWGQGTQVTVSS | low polyreactivity
2 | QVQLVESGGGLVQAGGSLRLSCAASGGTLRYYVMGWYRQAPGKERELVAAISWSGDSTYYADSVKGRFTISRDNAKNTVYLEMNSLKPDDTAVYYCAATYYVTYYYGQANHGYDYWGPGTQVTVSS | low polyreactivity
3 | QVQLVESGGGLVQAGGSLRLSCAASGRIFNRNAMGWYRQAPGKERELVAAISSDTSTNYADSVKGRFTISRDNAKNTVYLQMNSLKPEDTAVYYCAADVRRYDGYDYWGQGTQVTVSS | low polyreactivity
4 | QVQLEESGRGLVQAGGSLRLSCAASGNTLGYNAMGWYRQAPGKVRELVATFRGSGGITYYADSVKGRFTISRDNALNTVYLQMNSLKPEDTAVYYCANVYKSRVKGDHWGQGTQVTVSS | low polyreactivity
5 | QVQLVESGGGLVQAGGSLRLSCAASGSTFGYNAMGWYRQAPGKERELVAAISWSGGSTYYADSVKGRFTISRDNAKNTVYLQMNSLKPEDTAVYYCAALTHYGGYGYTYDYWGQGTQVTVSS | low polyreactivity
6 | QVQLVESGGGLVQAGGSLRLSCAASGITFWRTAMGWYRQAPGKEREFVAAITWTGGRTYYADSVKGRFTISRDNAQNTVYLQMNSLKPEDTAVYYCATGQSRDYYWGQGTQGTVSS | high polyreactivity
7 | QVHLVESGGGLVQAGCSLRLSCAASGFTFYDYAMGWYRQAPGKERELVAGISRGDSTYYADSVKGRFTISRDNAKNTVYLQKNSLKPEDTSVYYCAADARSYDALDYSDLLYDYWGHGTQVTVSS | low polyreactivity
8 | QVQLVESGGGLVQAGGSLRLSCAASGSTFAYNAMGWYRQAPGKERELVASISQSGVSTYYADSVKGRFTISRDNAKNTVYLQMNSLKPEDTAVYYCNTEIYYRSYEDDYWGQGSQVTVSS | low polyreactivity
9 | QVQLVESGGGLVQAGGSLRLSCAASGITFAQYAMGWYRQAPGTERELVAGITRSGGSTHYADSVKGRFTISRDNAKNTVYLQMNSLKPEDTAVYYCNARYPYRGKRKPSDYWGQGTQVTVSS | high polyreactivity
10 | QVQLVESGGGLVQAGGSLRLSCAASGRIFVPNAMGWYRQAPGKERELVARISRSDGSTYYADSVKGRFTISRDNAKNTVYLQMNSLKPEDTAVYYCAASTTPRWWSFKYYYWGQGTEVTVSS | high polyreactivity
11 | QVQLVESGGGLVQAGGSLRLSCAASGSILAYNAMGWYRQAPGKERELVASISKSGSSTYADSVKGRFTISRDNAKNTVYLQMNSLNPEDTAVYYCNARYYFSYYAFDYWGQGTQVTVSS | low polyreactivity
12 | QGQLVESGGGLVQAGGSLRLSCAASGSIFLGYAMGWYRQAPRKERELVAVITKSRGRTYYADSVKGRFTISRDNAKNTVYFQMNSLKPEDTAVYYCAKQPGSAYDYWGQGTQVTVSS | high polyreactivity
13 | QVQLVESGGGLDQAGGSLRLSCAASGSIIYWYAKGWYRQAPGKERELVADISRGGITNYADSVKGRFTISRDNEKNTVYLQMNSLKPEDTAFYYCAKTHYGVQRLDSWGQGTQVTVSS | low polyreactivity
14 | QVQLVESGGGLVQAGGSLRLSCAASGFIFYKNAMGLYRQAPGKERELVAAISRRGSSTYYADSVKGRFTISRDNAKNTVYLQMNSLKPEDTAVYYCAARFTRRDYWGQGTQVTVSS | high polyreactivity
15 | QVQLVESGGGLVQAGGSLRLSCAASGRTFVSYAMGWYRQAPGKERELVAAISGSGGSTYYADSVKGRFTISPDNAKKTGYLQMNSLKPEDTAVYYCHKGRPRKVNSEGFGYWGQGTQVTVSS | high polyreactivity
16 | QVQLVESGGGLVQAGGSHRLSCAASGSIFRSNTMGWYRQAPGKERELVAAITWRRGSTYYADSVKGRFTISRDNAKNTVYLQMNSLKPEDTAVYDCNALYVSRDDYWGQGTQVTVSS | high polyreactivity
17 | QVQLVESGGGLVQAGGSLRLTCAASGRTLRYNAMGWYRPAPVKERELVAAITSTGSTNYADSVKGRFTISRDNAKLTVYLHMNSLTAEDTAVYYCAKTSRYYWYGYDYWGQGTQVTVSS | high polyreactivity
18 | QVQLVESGGGLVQAGGSLRLSCAASGRTFLSYAMGWYRPAPGKERELVAAIRWRTGSRTYYADSVKGRFTISRDNAKNKVYLQLNSLKPEDTAVYLCANTYWYPYGYWGQGTQVTLSS | low polyreactivity
19 | QVQLVESGGGLVQAGGSLRLSCAASGSTFYGYAMGRYRQSPGKERELVAAITRSGGSTYYADSVKGRFTISRDNAKNTVYLQMNSLKPEDTEVYYCNKYGYKGGVGYDYWGQGTQVTVSS | high polyreactivity
20 | QVQLVESGGGLVQAGGSLRLSCAASGSTFNYYALGGYRQAPGKERELVAAISTSDGSTYYADSVKGRFTISRDNAKITVYVQMNSLKPEDTAVYYCAADSYERFPSYYYWGQGTQVTVSS | low polyreactivity
21 | QVQLVESGGGLVQAGGSLRLSCAASGIIFASNGMGWYRQAPGKERELLAAISSGGSTNYADSVKGRFTISRDNAKNTVYLQMNSLKPEDTAVYYCSTSGPQYYSRNFDYWGLGTQVTVSS | low polyreactivity
22 | QVQLVESGGGLVQAGGSHRLSCAASGFTFRRNAMGWYRQAPGKERELVAAISWSGGSTYYADSVKGRFTISRDNAKNTVYLQMNSLKPEDTAVYYCAAYDYRHLEDKYDYWGQGTQVTVSS | high polyreactivity

Row | Sequence | polyreactivity (PSR sort gate)
23 | QVQLVESGGGLVQAGSSLRLSSAASGSIIGVNAKGRYRQAAGKERELVAAISSTGGSTYYADSVKGRYTISRDNAKNTVFLKMNSLKPDDTAVYYCNTDYSKSIGDGYSGFDYWGQGTQLTVSS | low polyreactivity
24 | QVQLVESGGGLVQAGGSLRLSCAASGRIFQSYAMGWYRQAPGKERELVAGINSDTSTNYADSVKGRFTISRDNAKNTVYLQMNSLKPEDTAVYYCNAGWDTYYWQSTEFDYWGQGSQVTVSS | low polyreactivity
25 | QVQLVESGGGLVQAGGSLRLSCAASGNTLAANAMGWYRQAPGKERELVAAITYSGGSTYYADSVKGRFTISRDNAKNTVYLQMSSLKPEDTAVYDCNAPYVFSAGFDYWGQGTQVTVSS | low polyreactivity
26 | QVQLVESGGWLDQAGGSLRLSCAASGRTLGYYAMGWYRQAPGKERELVASIRYSGGSTYADSVKGRFTISRDNAKNTVYLQMNSLKPEDTAVYYCATGDSFRCYSALSRYDYWGQGTQVTVSS | high polyreactivity
27 | QVQLVESGGGLVQAGGSLRLSCAASGSTIYTYALGWYRQAPGKERELVAAIRGRGGRTYYADSVKGRFTISRDNAKNTVYLQMNSLKPEDTAVYYCNADGYAYYRATTRFDYWGQGTQVTVSS | high polyreactivity
28 | QVQLVESGGGLVQAGGSLRLSCAASGRTFIYNVMGWYRQAPGKERELVAAISQRGGSTYYADSVKGRFTISRDNAKNTVYLQMNSLKPEDTAVYYCAAESYYKKWSDYWGQGTQVTVSS | high polyreactivity
29 | QVQLVESGGGLVQAGGSLRLSCAASGFTFDYYAMGWYRQAPGKERELVAAITSGSITYYADSVKGRFTISRDNAKNTVYLQMNSLKPEDTAVYYCARYGYRRVGSRWAEFDYWGQGTQVTVSS | high polyreactivity
30 | QVQLVESGGGLVQAGGSLRLSCAASGRIFAGYAMGWYRQAPGKERELVATITRGGSTNYADSVKRPFTISRDNAKNTVYLQMNSLKPDDTAVYYCNADIRRHGGYAHEYWGQGTQVTVSS | low polyreactivity
31 | QVQLVESGGGLVQAGGSLRLSCAASGSTFDYNAMGCYRQAPRKERELDAVIRSGGTTYYADSVKGRFTISRVNAKNTVYLQMNSLKPEDTAVYYCAASFQRRAGSYGGSRRYGYLGQGTQVTVSS | high polyreactivity
32 | QVQLVESVGGLVQAGVSLPLSCAASGFTFSYNAMGWYIQAPGKERELVATIRSSGGSTNYADSVKGRFTISRDNAKNTVYVQMNSLKPEDTAVYYCAADFSYYSTYDYWGQGTQVTVSS | low polyreactivity
33 | QVQLVESAGGLVQAGGRLRLSCAASGSTFSYYAMGWYRQAPGKEREWVAAISRSGGSTYYADSVKGRFTISRDNAKNTVYLQLNSLKPDDTAVYYCNRYYYTVTREFDYWGQGTQVTVSS | low polyreactivity
34 | QVQLVESGGGLVQAGGSLRLSCAASGSTIYVYAMGWYRHPPGKERELVAAISTAGGRTSYADSVKGRFTISRDNAQNTVYLQMNSLKPEDTAVYYCAARSTLYRSIRYDYWGQGTQVTVSS | high polyreactivity
35 | QVQLVESGGGLVQAGGSLRLSCAASGSIFYTNAMGWYRQAPGKERELVASITGGGSTKYADSVKGRFTISRDNAKNTVYLQMNSLKPEDTAVYYCAKRRYWPLDWGQGTQVTVSS | high polyreactivity
36 | QVQLVESGGGLVQAGGSLRLSCAASGSTSGRNVMGWYRQSPGKERELVAAISSRGGSTYYADSVKGRFTISRDNEKNTVYLQMNSLKPEDTAVYYCASRYGAYSGYDYWGQGTQVTVSS | high polyreactivity
37 | QVQLVDSGGGLVQAGGTLRLSCAASGSTFRYYAMGWYRQAPGKERELVAAISWNGGRTYYADSVKGRFTISRDNAKNTVYLQMNSLKPEDSAVYYCDAVHYVAYYGYDFWGQGTQVTVSS | high polyreactivity
38 | QVQLVESGGGLVQAGGSLRLSCAASGFIFNLYAMGWYRQAPGKERELVATITNRGGITHYADSVKGRFTISRDNAKNTVYLQMNSLKPEDSAVYYCAVKVYRRSGGYEYWGQGTQVTVSS | low polyreactivity
39 | QVQLGESGGGLVQAGGSLRLSCAASGRIFRVNTMGWYRQAPGKERELVAAIRSSGTRTYYAVSVKGRFTISRDNAKNTVYLQMNSLKPEDTAVYYCAATGRRGSGYYYWGQGTQVTVSS | high polyreactivity
40 | QVQLVESGGGLVQAGGSLRLTCAASGFIFTYYAMGWYRQAPGKERELVAAISSSGGRTAYADSVKGRYTISRDNAKNTVYLQMNSLKPEDTAVYYCAARIRASGGKDGYNSWGQGTQVTVSS | high polyreactivity
41 | QVQLVESGGGLVQAGGSLRLSCAASGSIYGPYAMGLYRQAPGKERELVAGITRSVGSTYYADSVKGRFTISRDYAKNTVYLQMNSLKPEDTAVYYCNAKWMYSRWAGYDYWGQGTQVTVSS | low polyreactivity
42 | QVQLLETGGGLVQAGGSLRLSCAASGLIFYYNVMGWYIQAPGKERELVASISYSSTRTYYADSVKGRFTISRDNAKNTVYLQMNSLKPEDTAVYYCNAVIRNSWIRGYWGQGTQVTVSS | low polyreactivity
43 | QVQLVESGGGLVQAGGSLRLSCAASGSIAKINAMGWYRQAPGKERELVAAINTGDSTYYADSVKGRFTISRDNAKNTVYLQMNSLKPEDTAVYYCAAEGSPNGYDYWGQGTQVTVSS | low polyreactivity
